Laboratory results from patent WO2000075333A1 (dated 2000).

Biological target: T1, CD20 (human, UniProt P11836 1-297)
T1 construct: whole, on cells; also called CD20 antigen; CD20-positive Ramos cell line
T1 sequence (looked up): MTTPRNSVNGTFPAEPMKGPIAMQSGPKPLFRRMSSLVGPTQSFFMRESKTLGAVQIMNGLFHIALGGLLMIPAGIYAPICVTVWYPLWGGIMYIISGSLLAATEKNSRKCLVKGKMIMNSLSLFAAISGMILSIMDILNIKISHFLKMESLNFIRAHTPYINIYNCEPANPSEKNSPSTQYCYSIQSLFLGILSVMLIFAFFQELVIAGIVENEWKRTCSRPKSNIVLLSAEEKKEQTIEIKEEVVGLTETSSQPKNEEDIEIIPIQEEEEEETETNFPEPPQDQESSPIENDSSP
Assay: saturation binding of radiolabeled mAb to Ramos cells (10^7 cells), nonlinear regression, concentrations adjusted for immunoreactivity

B1: B9E9 mAb (antibody, V domains shown)
VH: QVQLVQSGAELVKPGASVKMSCKASGYTFTSYNMHWVKQTPGQGLEWIGAIYPGNGDTSYNQKFKGKATLTADKSSSTAYMQLSSLTSEDSAVYYCARAQLRPNYWYFDVWGAGTTVTVSS
VL: DIVLSQSPAILSASPGEKVTMTCRASSSVSYMHWYQQKPGSSPKPWIYATSNLASGVPARFSGSGSGTSYSLTISRVEAEDAATYYCQQWISNPPTFGAGTKLELK
Kd: 9.75 nM
